Experimental findings from patent US12385050B1 are described below.

The target in experiment [1] is endotoxin (endotoxin concentrate; δ-endotoxin of Bacillus thuringiensis).
Experiment [2] shares this target. The source holds these as a separate data set.
Experiment [3] shares this target. This is another data set of the same source.

In the case of “recombinant Phoenix dactylifera LEA2 protein PdLEA2.2”, the RPW adult mortality rate, endotoxin solution with the LEA protein, 42 °C, 10 days in experiment [1] is 75%. For the same substance, in experiment [2], the RPW egg hatching rate, endotoxin solution with the LEA protein at 1:40, heat stress 42 °C, day 5 was 11%. In experiment [3], this substance came in with an RPW larval mortality rate, endotoxin solution with the LEA protein, 42 °C, 10 days of 84.7%.

“recombinant Phoenix dactylifera LEA2 protein PdLEA2.3” registered an RPW adult mortality rate, endotoxin solution with the LEA protein, 42 °C, 10 days in experiment [1] of 73.6%. Also, the RPW egg hatching rate, endotoxin solution with the LEA protein at 1:40, heat stress 42 °C, day 5 in experiment [2] worked out at 15%. In addition, in experiment [3], the RPW larval mortality rate, endotoxin solution with the LEA protein, 42 °C, 10 days was 83.3%.

On to “recombinant Citrullus colocynthis dehydrin CcDHN”, for which the RPW adult mortality rate, endotoxin solution with the LEA protein, 42 °C, 10 days in experiment [1] stood at 77.6%. Moreover, in experiment [2], the RPW egg hatching rate, endotoxin solution with the LEA protein at 1:40, heat stress 42 °C, day 5 is 15%. The substance also yielded an RPW larval mortality rate, endotoxin solution with the LEA protein, 42 °C, 10 days in experiment [3] of 89.7%.

“recombinant Phoenix dactylifera LEA2 protein PdLEA2.4” gave an RPW adult mortality rate, endotoxin solution with the LEA protein, 42 °C, 10 days in experiment [1] of 73.3%. This substance displayed an RPW egg hatching rate, endotoxin solution with the LEA protein at 1:40, heat stress 42 °C, day 5 in experiment [2] of 11.3%. The same substance registered an RPW larval mortality rate, endotoxin solution with the LEA protein, 42 °C, 10 days in experiment [3] of 83.6%.

“recombinant Prosopis cineraria dehydrin PcDHN”: in experiment [1], the RPW adult mortality rate, endotoxin solution with the LEA protein, 42 °C, 10 days is 76.3%. In experiment [2], this substance gave an RPW egg hatching rate, endotoxin solution with the LEA protein at 1:40, heat stress 42 °C, day 5 of 13.6%. In experiment [3], this substance displayed an RPW larval mortality rate, endotoxin solution with the LEA protein, 42 °C, 10 days of 88%.

In experiment [1], “recombinant Phoenix dactylifera dehydrin PdDHN” came in with an RPW adult mortality rate, endotoxin solution with the LEA protein, 42 °C, 10 days of 75%. Besides, the RPW egg hatching rate, endotoxin solution with the LEA protein at 1:40, heat stress 42 °C, day 5 in experiment [2] was 11.3%. The RPW larval mortality rate, endotoxin solution with the LEA protein, 42 °C, 10 days in experiment [3] came to 85.6%.
